From a protein production outcome set (Wang et al. 2014)

Assay: label from the status in PepcDB records

Sequence	protein production
MPRRRVETRRVDHDPGKRTLLLSPVLPLPTMRTCALALLTILLGAPAHGQSTDGPWTIDHVLTQRSLTDVDIGPDGNRVLWVKETPDPEADETTSDVYLTYRDDPHGDSTATLQLTRTGDNRAPRWSPDGEHIAFLSSREQEDAAESSGTQIWRLDPRGGAPEVITSVEHGVQGARWLDDDRLLFTAREQNTRYEQHLEQTEDDADVIEDTTLFRPVRLFTVHVGTGEVTRVTNNDHQIGEFAPSPNGSRVVYSLSDSPITADARNQPHQFLLNLNTGATTEIFDEQYVDPSNFQWTADGAGFYATDSYSSDPEHEGAGITKLYHYDLAARDYQEVPLEWGDKGVGYGGYTVVDGGLHVQLADGPTFEPRFYRKTSDGWAPAEVADERLEHASAFTAGPDGETVVFSHSTADTPPSYRVGTYREGALQRDETLTTLNENLDDLPIPRAEVVRWTGANGETVNGILHYPLDYDPDRAYPMMTVLHGGPSGVDLDAWSLGWTVYAPLLAQRDAFVFRPNYHGSGHHGLDFVESIKGKYYELEVPDIVSGIDSLAAAGVVDKDSLGVMGWSNGAILTTQLTIEHPELFQVAAPGAGDVNWTSDYGNCAFGVRFDRSYFKGAPWTYTEHYIEKSPLFEMPKVQTPTLIHHGTEDRAVPYEQGWEYYRALQQIGNAPVRFLSYPGEPHGLRQLSHQRRKVAEDLKWIDTYLFGETSMQERVSERLLADDAPLSLLETAEAPARTDGHYGVRANGTLVPETVTLGDTLTVGRFEVTRAQFRAYDADFEVPSGTAEYPAHGLAADRAQAYVDWLSEQTGRDYRLPTAAELAALKAARAGPSENTPAYWAGFTPTPDEYRRLRARLAQHPTEALLMPVGSRPAGHGPNGGGPLIYDVDGNVAEWARTADGIEAQNASALTLKDPKAETAPTPPRRVTGLRVVLDR	failed
SPKMDVHETDHEVILECDIPGLESKEDLQIDVEPRSVRIEGRIKRSKEVHDERFYRREREIGHFRRVVPLPAEVAEDDIRAAYRNGVLEVRMRKRLDDRRRTIDVEFH	failed
MDQLSEKQIWYYHIIPEYQTEKSFYACVRRSGMIKFDTFYFPHMLSARETQRSIKFGDGVWSGCLYDPDIYTDGKISIQGVGGVLFPREAEIGGCVCLCLIFLIKLGLSTKYMKSHVSFDVSCDL	failed
MSSKRLVIVGGGITGLAAAYYAERAFPDLNITLLEAGERLGGKVATYREDGFTIERGPDSYVARKHILTDLIEAIGLGEKLVRNNTSQAFILDTGGLHPIPKGAVMGIPTDLDLFRQTTLLTEEEKQEVADLLLHPSDSLRIPEQDIPLGEYLRPRLGDALVEKLIEPLLSGIYAGNIDQMSTFATYPQFVANEQKAGSLFEGMRLMRPLDQLPQTPQTTIKATGQFLSLETGLESLIERLEEVLERSEIRLETPLLAISREDGRYRLKTDHGPEYADYVLLTIPHPQVVQLLPDAHLPELEQLTTHSTATVTMIFDQQQSLPIEGTGFVVNRRAPYSITACTAIDQKWNHSAPDHTVLRAFVGRPGNDHLVHESDEVLQQAVLQDLEKICGRTLEPKQVIISRLMDGLPAYTVGHADRIQRVREEVLAQYPGIYLAGLAYDGVGLPDCVASAKTMIESIELEQSHTDESVNET	not failed
MKRSSPVILVSEDEYGKFDESTNSILVKGKMHHLGISRVIEPGDELIVSGKSFIVSDFSPMYFGRVIRRNTQIISEIDASYIIMRCGLRPGMDILEVGVGSGNMSSYILYALNGKGTLTVVERDEDNLKKAMDNLSEFYDIGNVRTSRSDIADFISDQMYDAVIADIPDPWNHVQKIASMMKPGSVATFYLPNFDQSEKTVLSLSASGMHHLETVELMKRRILVREGATRPASDDLTHTAFITFAIKKSGMVYRI	not failed
MDTAGIRLTPKEIVSKLNEYIVGQNDAKRKVAIALRNRYRRSLLDEESKQEISPKNILMIGPTGVGKTEIARRMAKVVGAPFIKVEATKFTEVGYVGRDVESMVRDLVDVSVRLVKAQKKSLVQDEATAKANEKLVKLLVPSMKKKASQTNNPLESLFGGAIPNFGQNNEDEEEPPTEEIKTKRSEIKRQLEEGKLEKEKVRIKVEQDPGALGMLGTNQNQQMQEMMNQLMPKKKVEREVAVETARKILADSYADELIDQESANQEALELAEQMGIIFIDEIDKVATNNHNSGQDVSRQGVQRDILPILEGSVIQTKYGTVNTEHMLFIGAGAFHVSKPSDLIPELQGRFPIRVELDSLSVEDFVRILTEPKLSLIKQYEALLQTEEVTVNFTDEAITRLAEIAYQVNQDTDNIGARRLHTILEKMLEDLSFEAPSMPNAVVDITPQYVDDKLKSISTNKDLSAFIL	failed
MGHHHHHHSHMDVTIQHPWFKRTLGPFYPSRLFDQFFGEGLFEYDLLPFLSSTISPYYRQSLFRTVLDSGISEVRSDRDKFVIFLDVKHFSPEDLTVKVQDDFVEIHGKHNERQDDHGYISREFHRRYRLPSNVDQSALSCSLSADGMLTFCGPKIQTGLDATHAER	failed
MSRIASHTQGLFADLREWIDLRVDLAILEMEERLDAFKNDLALGLTVAVFAFFAAFFSLTTVALGVGWLLGHPFWGFLAVSVALILIIVTLRVTKPALMPPSNLFESLRGERAASDEGPSSRPASAAVDEADGAEAQASAPDVKA	failed
RTFESVADLAAAAGEKVGQSDWVTITQEEVNLFADATGDHQWIHVDPERAAAGPFGTTIAHGFMTLALLPRLQHQMYTVKGVKLAINYGLNKVRFPAPVPVGSRVRATSSLVGVEDLGNGTVQATVSTTVEVEGSAKPACVAESIVRYVA	not failed
QVPKKQTTSKILVRNIPFQANQREIRELFSTFGELKTVRLPKKMTGTGAHRGFGFVDFITKQDAKKAFNALCHSTHLYGRRLVLEWADSEVTVQ	not failed
MRERVLFFDLLRCVAAVAVIAIHVLAPYRNELGVIPMDQWLTAVGVNSVTRWAVPVFILITGALMLSDTRPFDGKYYVKRRLGKVLVPFLIWSTFYAYLSGWTAQGFDFETVKEVLSNSPFHATYYHLGFFYYFIPLYFVIPLFQWMARNVDDNVLYTYLAFWMFTSTLFLFKIDGPWSNQMWLYMGYLPLGYVLFQKVPLNRSMVTLFTGFGLVALAVTFTMVVTNSLEAEKYTVGRWLSYKTLNVILAASMIFMLCRYFGEGLPKNVQKVVSFISQHSLGIYLLHPIFLWPMKEFGWYTGHPGWVIPVWIVLSGAGALAMSYLFSKSAKTRWLLP	failed
FAFVYEAQDVGSGREYALKRLLSNEEEKNRAIIQEVCFMKKLSGHPNIVQFCSAASIGKEESDTGQAEFLLLTELCKGQLVEFLKKMESRGPLSCDTVLKIFYQTCRAVQHMHRQKPPIIHRDLKVENLLLSNQGTIKLCDFGSATTISHYPDYSWSAQRRALVEEEITRNTTPMYRTPEIIDLYSNFPIGEKQDIWALGCILYLLCFRQHPFEDGAKLRIVNGKYSIPPHDTQYTVFHSLIRAMLQVNPEERLSIAEVVHQLQEIAAARNVNPKSPITELLEQNGGYGSAT	failed
MYFTEFLTVALIHLLAVASPGPDFAVVVRESVTHGRRAGTWTALGVGCAIFLHVGYSLLGIGLIVSQSIVLFNALKWLAAAYLLYIGYKALRAQPAKPAADDLHKEAGVRTARGAFTSGFVTNGLNPKATLFFLSLFTVVINPHTPLAIQAGYGVYLAVATAVWFCLVAMLFSQQRVRAGFARMGHWFDRTMGAVLIAIGVKLAFTEMH	failed
MTRRGGRLRTVLTVLTAWSALAGAALAGAAPAGGAPRSVPLAPGVEYTQFDIPADRGVTHAHLLSVDLADPRVRVGLLHPGAVAARAPVSRLADSQGALAGINGDFFNITETQHPGVEATGSTDGPAIADGHTLKAAVPNGQRFGPALPPGTTTEDVLGVGDDRRARLDRLALEGSVDTAAGELPLRGLNQYALPEGSVGAYTADWGSVSRARAVCGTDTDRAAPCSTDTYEVTVRDGQVVSFADSPGSGPIAAGTTVLVGREAGAQQLRKLSTGEEVSVEHRLVAAGSQVAYSFAIGGYPVLRQGKPLPGLDTVTSAVRTAVGIKDAGRRLLLLAIDGAAAYRSGLTIAEVASVMRGLGATEAFSLDGGGSTTLVARAPGATSVTVRNHPSGGAERPVPNGIGVFTRT	failed
MKQLLLGRNALFGLLGAIAVLTVVPVATIMPAYAVDDIEGADAPDLTAVQAKIAAKDYKGALAELRDLAQDNQQADVYNLLGFTLRKTGDVTTALTYYNKALELKPDHKAAREYLGELYVETGDMNKAKEQLASLQKLCPAGCEELSDLQKAIDTKVTQ	failed
MSDSIVGIPREDHQTFLYNPFTSQRYELPPLTIEDPHLKSVLRYGVLTGDPREDNTYACLVADSLHANLMAIGNTHPPSLHLYYVAKRNGEWDQNWSVTRIPTHNLPVVGSTIDSISPSADKISIIGWGHSFDFTFQSQDWNVTNINYTMEWNPFHGQSFDQIKHRLQIDPQTLDIIGTKTDRERVKNRIWFVINQIISHIDGVWVEVRA	failed
MSFSDSESSSHGGGGGDYKFFRQISRDRLLHEMLGSTKTGDSKAWKILIMDRVTVKVMSQSCKMADITDQGISLVEELFKRREPMPGMDAIYFIQPSKENIVMFLSDMSGREPLYRKAFIFFSSTIPKELVNHIKSDSSVLPRIGALREMNMEYFPIDNQGFLTDHEQALETLYAEDAENSRHFHICLNIMATRIATVFASLKELPFVRYRAAKSTASRDLVPSKLAAAIWDCISKYKAIPNFPQTETCELLIVDRSVDQVLRLIYYIYSSSPY	failed
MYRLLALFVPPEAAFRTGRGFSFDAGEVTGAIGDSVTVLPLVVALGLLTPASLPHLLAGFGVFQVIWGLYYGVPLSVEPMKALAGLAIAGTLSHGGLVAAGLVAGGVLLVAGRTGSLSWIQQFVGEPVVRGVQFAVACLLVVAAVDLVAGSVGIAAAGAGLALVVALVSRNAVALVVLAVGAVWAATAGGIPAPAAPSLELFPAGGPTLSVGAIEGLLAQLAMTVGNAAVATSLLLSDLYDAEISPDRLADSMGAMNLAAVPLGAVPMCHGSGGLAGKHAFGARTGTANLVAGGFYAGLALVAGLLAAFPMALLGVLLVVVAASLSRVAFTKTDRRLFVAGVGGLAVVTNVAVAFVAATLWWQLRG	failed
MHEKVPKKTYDSELYNGYLAIYNGYGDLRYFTVKIENDICVSLVWNTGMTKKSRGKKRIRINVYRPKIAPAKNKKPKPTKEQLMDPEFSDEDVLTSLGFDDGGYIIPLPKKSLMLINLPDSFRDELQTMHVSFYLREVGKLMFG	failed
MGRIIGIDLGTTTSEIAYVKDGKPCIIRNIEEGDEHAIPSVVSIEGDEIKVGKKAKNQILLKPELTVAEVKRVMGTENIIQIQGKEYRPEEISALILKKLKEVAEYFLGEEVEEAVITVPANFNDIQRKATKNAGEIAGFKVERIINEPTAAAMAYGVDNLDKNGNILVYDFGGGTFDVTILEMFNGVLDVKVSRGNNYLGGKDIDNKLIDHVVNEFNKSTGVKLDTSDSRILARLKEGVEEAKKTLSTSKMAEIVLPYISADKDNNPINLEMVLTREEFEFNVKEIIDSTEDIVNEALEDANITDNEIDTVLLVGGSSRIPYVRNMLEKRFKGKIARGVNPDEAVALGASVQAAIKNDIPVGDSGTIIVTDTCNYTLGVALKGGIFDPIIDRDSKLPANVTKRYCTVMDNQTEVLVSVYEGESRYVSDNTLIDEFILSGIPKADTGKEKIDITFTYDLNGILNVSAEILSTGDEISKIMSTKGLSKEEIQDLKEVVSSNENNNELVPWKSANLFKLVEPNFRLAERKIPMLPSADREKLQEIMSDMKDAIVDNDKMALMKLDEELTDFLFDFVN	failed
MLSERRLKVLRAIVQDYVGTEEPVGSKALTERHNLGVSPATVRNDMAALEDEGFIAQPHTSAGRIPTDKGYRLFVDKLAGVKPMTAPERRAIQNFLEGAVDLDDVVARTVRLLAQLTRQVAVVQYPSLTRSTVRHVELLSLAPARLMLVLITDTGRVEQRMVDCPAPFGEASLADLRARLNSRVAGRRFADVPALVEDLAEPFEAEDRGTVSTVLSTLLETLVEENEERLMIGGTANLTRFGHDFPLVIRPVLEALEEQVVLLKLLGEAKDPGVTVRIGHENAHEGLNSTSVVSVGYGSGGEAVAKLGVVGPTRMDYPGTMGAVRAVARYVGQILAES	failed
